The record followed here is paper PMC9677513.

Assay [1] deals with Nano-CRAF^CAT (human) (UniProt P04049). Briefly: FRET or BRET. Background: Bioluminescence resonance energy transfer reports proximity on the nanometre scale.
Assay [2] has as its target E275K-BRAF^FL-RLuc8 (human) (UniProt P15056). The assay can be described thus: FRET or BRET.

In turn, “CRAF^REG construct containing the BRAF-CRD, Halo-tagged (domain or fragment)” registered an increase of BRET signal over CRAF^REG in assay [1] of 40%.

As to “Venus-KRAS^G12V (from UniProt P01116 1-189) (natural protein)”, the increase of BRETmax over WT in assay [2] stood at 15%.
